Experiments:
[1] = molecular target: T1, Human C1q (Sigma Cat. No. 20476), HRP-labelled (human, UniProt P02745 23-245; P02746 28-253; P02747 29-245); assay: ELISA, antibody coated, HRP-C1q; Expt 1, buffer alone 0.053
T1 construct: Coupled to horse-radish peroxidase with Lightning-Link kit; also called HRP-labelled C1q

[2] = molecular target: T1, Human C1q (Sigma Cat. No. 20476), …; assay: ELISA, antibody coated, HRP-C1q; Expt 2, buffer alone 0.051
[3] = molecular target: T2, Histidine-tagged recombinant human FcγRI (CD64) (human, UniProt P12314 16-288); assay: SPR, culture supernatant, captured His-FcγRI;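 further: biacore T200 SPR at 25 °C, anti-His capture, supernatants of HEK293 cells expressing IgG1 Fc variants injected 1 min, reference-subtracted response read 55 s after injection start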
T2 construct: bought; also called Sino Biological Cat. No. 12056-H08H

[4] = molecular target: T3, human FcγRIIIB (NA2 allotype, Sino Biological Cat. No. 11046-H08H) (human, UniProt O75015 17-200); assay: SPR, captured His-receptor
T3 construct: bought; also called human FcγRIIIb NA2 allele

[5] = molecular target: T4, human FcγRIIA (R131, Sino Biological Cat. No. 10374-H08H) (human, UniProt P12318 34-218); assay: SPR, captured His-receptor
T4 construct: bought; also called human FcγRIIa R131 allele; FcγRII allele R131
T4 sequence (looked up): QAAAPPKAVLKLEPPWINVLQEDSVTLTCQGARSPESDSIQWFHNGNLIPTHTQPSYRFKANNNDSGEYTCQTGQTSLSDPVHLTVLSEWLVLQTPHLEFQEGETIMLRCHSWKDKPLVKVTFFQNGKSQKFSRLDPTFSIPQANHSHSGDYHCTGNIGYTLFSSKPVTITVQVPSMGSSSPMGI

[6] = molecular target: T2, Histidine-tagged recombinant human …; assay: SPR, captured His-receptor

| Binder | Mean Absorbance [1] | Mean Absorbance [2] | Mean binding response [3] | binding result [4] | binding result [5] | binding result [6] |
| --- | --- | --- | --- | --- | --- | --- |
| anti-CD52 (alemtuzumab) human IgG1 wild-type reference (antibody, also called 4-1; copies: 2 + 2) heavy: not shown light: not shown | 1.42 absorbance (450 nm) | 0.649 absorbance (450 nm) |  |  |  |  |
| anti-CD20 human IgG1 L234S/L235T/G236R (antibody, also called 1-150; 2-52; copies: 2 + 2) heavy: QVQLQQPGAELVKPGASVKMSCKASGYTFTSYNMHWVKQTPGRGLEWIGAIYPGNGDTSYNQKFKGKATLTADKSSSTAYMQLSSLTSEDSAVYYCARSTYYGGDWYFNVWGAGTTVTVSSASTKGPSVFPLAPSSKSTSGGTAALGCLVKDYFPEPVTVSWNSGALTSGVHTFPAVLQSSGLYSLSSVVTVPSSSLGTQTYICNVNHKPSNTKVDKKVEPKSCDKTHTCPPCPAPESTRGPSVFLFPPKPKDTLMISRTPEVTCVVVDVSHEDPEVKFNWYVDGVEVHNAKTKPREEQYNSTYRVVSVLTVLHQDWLNGKEYKCKVSNKALPAPIEKTISKAKGQPREPQVYTLPPSRDELTKNQVSLTCLVKGFYPSDIAVEWESNGQPENNYKTTPPVLDSDGSFFLYSKLTVDKSRWQQGNVFSCSVMHEALHNHYTQKSLSLSPGK light: QIVLSQSPAILSASPGEKVTMTCRASSSVSYIHWFQQKPGSSPKPWIYATSNLASGVPVRFSGSGSGTSYSLTISRVEAEDAATYYCQQWTSNPPTFGGGTKLEIKRTVAAPSVFIFPPSDEQLKSGTASVVCLLNNFYPREAKVQWKVDNALQSGNSQESVTEQDSKDSTYSLSSTLTLSKADYEKHKVYACEVTHQGLSSPVTKSFNRGEC |  |  | 16.2 RU | no binding (tested: 100 µg/mL) | no binding (tested: 100 µg/mL) | no binding (tested: 100 µg/mL) |
| anti-CD20 human IgG1 L234T/L235Q/G236R (antibody, also called 2-60; copies: 2 + 2) heavy: QVQLQQPGAELVKPGASVKMSCKASGYTFTSYNMHWVKQTPGRGLEWIGAIYPGNGDTSYNQKFKGKATLTADKSSSTAYMQLSSLTSEDSAVYYCARSTYYGGDWYFNVWGAGTTVTVSSASTKGPSVFPLAPSSKSTSGGTAALGCLVKDYFPEPVTVSWNSGALTSGVHTFPAVLQSSGLYSLSSVVTVPSSSLGTQTYICNVNHKPSNTKVDKKVEPKSCDKTHTCPPCPAPETQRGPSVFLFPPKPKDTLMISRTPEVTCVVVDVSHEDPEVKFNWYVDGVEVHNAKTKPREEQYNSTYRVVSVLTVLHQDWLNGKEYKCKVSNKALPAPIEKTISKAKGQPREPQVYTLPPSRDELTKNQVSLTCLVKGFYPSDIAVEWESNGQPENNYKTTPPVLDSDGSFFLYSKLTVDKSRWQQGNVFSCSVMHEALHNHYTQKSLSLSPGK light: QIVLSQSPAILSASPGEKVTMTCRASSSVSYIHWFQQKPGSSPKPWIYATSNLASGVPVRFSGSGSGTSYSLTISRVEAEDAATYYCQQWTSNPPTFGGGTKLEIKRTVAAPSVFIFPPSDEQLKSGTASVVCLLNNFYPREAKVQWKVDNALQSGNSQESVTEQDSKDSTYSLSSTLTLSKADYEKHKVYACEVTHQGLSSPVTKSFNRGEC |  |  | 17 RU | no binding (tested: 100 µg/mL) | no binding (tested: 100 µg/mL) | no binding (tested: 100 µg/mL) |
| anti-CD3 (muromonab) human IgG1 wild-type reference (antibody, also called 3-1; copies: 2 + 2) heavy: not shown light: QIVLTQSPAIMSASPGEKVTMTCSASSSVSYMNWYQQKSGTSPKRWIYDTSKLASGVPAHFRGSGSGTSYSLTISGMEAEDAATYYCQQWSSNPFTFGSGTKLEIKRTVAAPSVFIFPPSDEQLKSGTASVVCLLNNFYPREAKVQWKVDNALQSGNSQESVTEQDSKDSTYSLSSTLTLSKADYEKHKVYACEVTHQGLSSPVTKSFNRGEC | 0.769 absorbance (450 nm) | 0.432 absorbance (450 nm) |  |  |  |  |
| anti-CD3 (muromonab) human IgG1 L234T/L235T/G236R (antibody, EU numbering; also called 3-63; copies: 2 + 2) heavy: not shown light: QIVLTQSPAIMSASPGEKVTMTCSASSSVSYMNWYQQKSGTSPKRWIYDTSKLASGVPAHFRGSGSGTSYSLTISGMEAEDAATYYCQQWSSNPFTFGSGTKLEIKRTVAAPSVFIFPPSDEQLKSGTASVVCLLNNFYPREAKVQWKVDNALQSGNSQESVTEQDSKDSTYSLSSTLTLSKADYEKHKVYACEVTHQGLSSPVTKSFNRGEC | 0.047 absorbance (450 nm) | 0.048 absorbance (450 nm) |  |  |  |  |
| anti-CD3 (muromonab) human IgG1 L234A/L235A (LALA) (antibody, EU numbering; also called 3-65; copies: 2 + 2) heavy: not shown light: QIVLTQSPAIMSASPGEKVTMTCSASSSVSYMNWYQQKSGTSPKRWIYDTSKLASGVPAHFRGSGSGTSYSLTISGMEAEDAATYYCQQWSSNPFTFGSGTKLEIKRTVAAPSVFIFPPSDEQLKSGTASVVCLLNNFYPREAKVQWKVDNALQSGNSQESVTEQDSKDSTYSLSSTLTLSKADYEKHKVYACEVTHQGLSSPVTKSFNRGEC | 0.053 absorbance (450 nm) | 0.051 absorbance (450 nm) |  |  |  |  |
| anti-CD3 (muromonab) human IgG1 L234A/L235A/P329G (LALAPG reference) (antibody, EU numbering; also called 3-66; copies: 2 + 2) heavy: not shown light: QIVLTQSPAIMSASPGEKVTMTCSASSSVSYMNWYQQKSGTSPKRWIYDTSKLASGVPAHFRGSGSGTSYSLTISGMEAEDAATYYCQQWSSNPFTFGSGTKLEIKRTVAAPSVFIFPPSDEQLKSGTASVVCLLNNFYPREAKVQWKVDNALQSGNSQESVTEQDSKDSTYSLSSTLTLSKADYEKHKVYACEVTHQGLSSPVTKSFNRGEC | 0.052 absorbance (450 nm) | 0.044 absorbance (450 nm) |  |  |  |  |
| anti-CD3 (muromonab) human IgG1 L234S/L235T/G236R (antibody, EU numbering; also called 3-52; copies: 2 + 2) heavy: not shown light: QIVLTQSPAIMSASPGEKVTMTCSASSSVSYMNWYQQKSGTSPKRWIYDTSKLASGVPAHFRGSGSGTSYSLTISGMEAEDAATYYCQQWSSNPFTFGSGTKLEIKRTVAAPSVFIFPPSDEQLKSGTASVVCLLNNFYPREAKVQWKVDNALQSGNSQESVTEQDSKDSTYSLSSTLTLSKADYEKHKVYACEVTHQGLSSPVTKSFNRGEC | 0.048 absorbance (450 nm) | 0.046 absorbance (450 nm) |  |  |  |  |
| anti-CD3 (muromonab) human IgG1 L234S/L235V/G236R (antibody, EU numbering; also called 3-53; copies: 2 + 2) heavy: not shown light: QIVLTQSPAIMSASPGEKVTMTCSASSSVSYMNWYQQKSGTSPKRWIYDTSKLASGVPAHFRGSGSGTSYSLTISGMEAEDAATYYCQQWSSNPFTFGSGTKLEIKRTVAAPSVFIFPPSDEQLKSGTASVVCLLNNFYPREAKVQWKVDNALQSGNSQESVTEQDSKDSTYSLSSTLTLSKADYEKHKVYACEVTHQGLSSPVTKSFNRGEC | 0.047 absorbance (450 nm) | 0.042 absorbance (450 nm) |  |  |  |  |
| anti-CD3 (muromonab) human IgG1 L234T/L235Q/G236R (antibody, EU numbering; also called 3-60; copies: 2 + 2) heavy: not shown light: QIVLTQSPAIMSASPGEKVTMTCSASSSVSYMNWYQQKSGTSPKRWIYDTSKLASGVPAHFRGSGSGTSYSLTISGMEAEDAATYYCQQWSSNPFTFGSGTKLEIKRTVAAPSVFIFPPSDEQLKSGTASVVCLLNNFYPREAKVQWKVDNALQSGNSQESVTEQDSKDSTYSLSSTLTLSKADYEKHKVYACEVTHQGLSSPVTKSFNRGEC | 0.047 absorbance (450 nm) | 0.045 absorbance (450 nm) |  |  |  |  |
| anti-CD3 (muromonab) human IgG1 L234G/L235S/G236R (antibody, EU numbering; also called 3-19; copies: 2 + 2) heavy: not shown light: QIVLTQSPAIMSASPGEKVTMTCSASSSVSYMNWYQQKSGTSPKRWIYDTSKLASGVPAHFRGSGSGTSYSLTISGMEAEDAATYYCQQWSSNPFTFGSGTKLEIKRTVAAPSVFIFPPSDEQLKSGTASVVCLLNNFYPREAKVQWKVDNALQSGNSQESVTEQDSKDSTYSLSSTLTLSKADYEKHKVYACEVTHQGLSSPVTKSFNRGEC | 0.052 absorbance (450 nm) | 0.049 absorbance (450 nm) |  |  |  |  |
| anti-CD3 (muromonab) human IgG1 N297Q (aglycosyl) (antibody, EU numbering; also called 3-67; copies: 2 + 2) heavy: not shown light: QIVLTQSPAIMSASPGEKVTMTCSASSSVSYMNWYQQKSGTSPKRWIYDTSKLASGVPAHFRGSGSGTSYSLTISGMEAEDAATYYCQQWSSNPFTFGSGTKLEIKRTVAAPSVFIFPPSDEQLKSGTASVVCLLNNFYPREAKVQWKVDNALQSGNSQESVTEQDSKDSTYSLSSTLTLSKADYEKHKVYACEVTHQGLSSPVTKSFNRGEC | 0.052 absorbance (450 nm) | 0.051 absorbance (450 nm) |  |  |  |  |

Reference: patent US20230235013A1 (MABSOLVE, published 2023)
